Data on nine substances can be found in patent US7919462B2, “Inhibitors of human plasmin derived from the Kunitz domains” (Dyax Corp., priority 1994, dated 2011).

“And” between values parts separate entries of the source, which are not always exact repeats. Equal entries are not always repeated. Where two headings read alike, the source gives them in different places. Bridges are numbered along the chain shown (N, C = ends). Where no end group is shown, it is not given here.

Test [1] deals with T1, plasmin (Homo sapiens, UniProt P00747). As to the kind of experiment: Binding of display phage (KuDom on M13 gIIIp) to plasmin beads. The settings on record: in words.
T1 sequence (P00747 581-810 limits assumed): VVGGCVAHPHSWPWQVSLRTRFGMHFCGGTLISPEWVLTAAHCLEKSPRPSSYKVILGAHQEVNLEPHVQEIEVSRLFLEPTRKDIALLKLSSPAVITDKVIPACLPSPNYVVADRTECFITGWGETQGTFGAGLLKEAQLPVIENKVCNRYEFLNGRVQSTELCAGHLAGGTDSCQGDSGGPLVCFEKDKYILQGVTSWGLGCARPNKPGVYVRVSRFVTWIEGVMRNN
T1 sequence (P00747 97-580 partner limits assumed): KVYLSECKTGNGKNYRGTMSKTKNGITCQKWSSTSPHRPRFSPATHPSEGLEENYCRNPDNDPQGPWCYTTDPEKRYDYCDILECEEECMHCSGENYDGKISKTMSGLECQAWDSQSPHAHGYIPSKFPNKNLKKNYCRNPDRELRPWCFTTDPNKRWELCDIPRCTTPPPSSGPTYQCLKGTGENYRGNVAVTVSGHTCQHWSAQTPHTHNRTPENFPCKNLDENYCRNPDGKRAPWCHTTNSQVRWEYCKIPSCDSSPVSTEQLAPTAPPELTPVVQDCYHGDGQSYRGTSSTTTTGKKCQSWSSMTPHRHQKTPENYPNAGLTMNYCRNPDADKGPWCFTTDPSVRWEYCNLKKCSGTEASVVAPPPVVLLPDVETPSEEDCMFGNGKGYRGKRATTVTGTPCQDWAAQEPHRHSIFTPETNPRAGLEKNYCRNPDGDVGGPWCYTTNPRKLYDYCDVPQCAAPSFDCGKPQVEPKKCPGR
Test [2] addresses T1, plasmin. As to the kind of experiment: Inhibition of plasmin hydrolysis of succinyl-Ala-Phe-Lys-(F3Ac)AMC, tight-binding fit (Ki used as KD). Format: biochemical. An excerpt:
A second appropriate method of measuring KD is to measure the inhibitory activity against the enzyme. […] Here, we use the measured Ki as a direct measure of KD.
Inhibition of hydrolysis of succinyl-Ala-Phe-Lys-(F3Ac)AMC (a methyl coumarin) (Sigma Chemical, St. Louis, Mo.) by plasmin at 2.5×10^−8 M with varying amount of inhibitor were fit to the standard form for a tight-binding […] by least-squares.

Test [3] addresses T1, plasmin. The settings on record: cited from earlier work; for Kd: Table 4, plasmin, read-out: Affinity KD.

For “SPI15: LACI-K1 derivative selected for plasmin binding, SEQ ID NO. 41 (Table 6: 90) (MHSFCAFKAESGPCRARFDRWFFNIFTRQCEEFIYGGCEGNQNRFESLEECKKMCTRD; Synthetically generated peptide)”, the “binding of clonally pure phage compared to BPTI display phage” value in the test with plasmin [1] is given as “superior to BPTI phage”.

On plasmin [2] (Affinity KD), “MHSFCAFKADGGPCKGKFPRFFFNIFTRQCEEFIYGGCEGNQNRFESLEECKKMCTRD (disulfide 5-55, 14-38, 30-51) [SPI22]” yielded a Kd above 2 nM. As a reminder, the Ki is the equilibrium dissociation constant of an inhibitor or competing ligand from its target. For “QS4: LACI-K1 derivative that binds human plasmin, SEQ ID NO. 4 (MHSFCAFKADDGPCKARFERFFFNIFTRQCEQFYYGGCDGNQNRFESLEECKKMCTRD; Synthetically generated peptide)”, the Ki with plasmin [2] (150 mM salt, read-out: Ki for plasmin) was around 2 nM. Besides, in the test with plasmin [2] (Table 4, plasmin, read-out: Affinity KD), the Kd worked out at 2 nM. The “potency class for plasmin below the rank order of Table 8” value with plasmin [2] (class words wrapped over r53-r54: Highly Superior / very potent / potent, order SPI11<BPTI<SPI23=SPI51<SPI47<QS4<SPI22<SPI54<SPI43) is given as “potent”. For “MHSFCAFKADDGPCKARFERFFFNIFTRQCEQFTYGGCGGNQNRFESLEECKKMCTRD (disulfide 5-55, 14-38, 30-51) [NS4]”, the Ki at plasmin [2] (Ki for plasmin, 150 mM salt) is around 2 nM. On plasmin [2] (Ki for plasmin), “MHSFCAFKAETGPCRGKFDRWFFNIFTRQCESFHYGGCKGNQNRFESLEECKKMCTRD (disulfide 5-55, 14-38, 30-51) [SPI43]” showed a Ki above 4 nM. In the case of “MHSFCAFKADSGPCRARFDRWFFNIFTRQCTRFPYGGCGGNQNRFESLEECKKMCTRD (disulfide 5-55, 14-38, 30-51) [SPI54]”, on plasmin [2] (Ki for plasmin, 150 mM salt), the Ki was above 4 nM. For “MHSFCAFKAETGPCRARFDRWFFNIFTRQCEEFIYGGCEGNQNRFESLEECKKMCTRD (disulfide 5-55, 14-38, 30-51) [SPI11]”, the results for the Kd at plasmin [2] (Affinity KD) and on plasmin [2] (affinity for plasmin) were 0.088 nM and below 0.1 nM, respectively. For the same substance, the Ki on plasmin [2] (Ki for plasmin) was 0.088 nM and ~0.088 nM. Take “Human APP-I: human Kunitz domain APP-I, SEQ ID NO. 39 (VREVCSEQAETGPCRAMISRWYFDVTEGKCAPFFYGGCGGNRNNFDTEEYCMAVCGSA; listed as Homo sapiens)”: in the test with plasmin [3] (AUER88, SCHN86, DENN94a), the Ki was 225 nM. The Kd in the test with plasmin [3] (KIDO88) was 0.075 nM; with plasmin [3] (literature values (APP-I: DENN94a)) it was 225 nM. Take “SPI08: LACI-K1 derivative selected for plasmin binding, SEQ ID NO. 42 (MHSFCAFKADGGPCRARFERFFFNIFTRQCEEFIYGGCEGNQNRFESLEECKKMCTRD; Synthetically generated peptide)”: the “binding of clonally pure phage compared to BPTI display phage” value with plasmin [1] is recorded as “superior to BPTI phage”.
